In the DeepSol protein solubility set:

Assay: soluble on expression in E. coli; label from the status in PepcDB or PDB records

Row | Sequence | soluble on expression in E. coli
1 | MSLTDEPKLLAEPREGVPNVIDTLPAFRDYCSELASSHGSLAADAERASGFRYGHEDWLVQFKRDGAGIGLLDPQALAAAGADWNDFNRAVGDAVWILHDSLQDLPGFDELGMEPQRLFDTEIAARLLGLKRFGLAAVTEHFLGLTLAKEHSAADWSYRPLPRDWRNYAALDVELLIELETKMRAELKRQGKMEWAQEEFDYALKEGLGPRKEHLIPWMHVSHITEVMRDRQALAIVRALWTRRDELAREYDIAPTLLLSDSSIIEVAKRKPHNAAQFRSIRSINERVRIHTDSEQDKMFERYAPIQRKIKPSMWKNIIQDALALPPSEWPDVDGGAARRHESQSASAPKSIRVWKERYPERLQVLNRVRKAVSQIAEDTRTPVEIVIKPQYLRNLCWTDEPRKRDVARFLSEQGARDWQVSLVAESVSRAIEGHHHHHH | soluble
2 | MGSDKIHHHHHHMKILIVGGSGGIGSAMVKDALARFQDAEVHATFCTDSTHTGCSHFSGVKWHRLDVTDEAGIKALSESFESLDWLINCVGMLHSGSKGPEKSLSQFDGEFFLHNMTLNTLPTLLLAKHFSARLKSSVSPRLAVLSARVGSISDNRLGGWYSYRASKAALNMLIKTLAVEWQRSLKGGVVLALHPGTTKTRLSEPFQANVPGDKLFLPERVAADLMDIIARAEVCDSGSFLAYDGATIPW | not soluble
3 | RGSHHHHHHGSFTPSGTTGTTKLTVTEECQVRVGDLTVAKTRGQLTDAAPIGPVTVQALGCNARQVALKADTDNFEQGKFFLISDNNRDKLYVNIRPMDNSAWTTDNGVFYKNDVGSWGGTIGIYVDGQQTNTPPGNYTLTLTGGYWAK | soluble
4 | MGSSHHHHHHSSGLVPRGSHQPALAAEPAQLRIGYQKAVSSLVLAKQHRLLEQRFPRTKITWVEFPAGPQLLEALNVGSIDLGGAGDIPPLFAQAAGADLLYVGWVPPTPKAETILVPSKSALRTVADLKGKRIAFQKGSSAHNLLLRVLAKSGLSMRDITPLYLSPANARAAFAAGQVDAWAIWDPWYSALTLDGSARLLANGEGLGLTGGFFLSSRRYATAWGPFVQQVMGTLNQADGLLERDRAGSIKTLAQVSGLPPAVVERTLAHRPPASVQPLSAQVIKAQQATADLFYAQRLLPKRVLVAPAVWRAPDAGTAQAVSK | soluble
5 | MRGHLIDGDGRCIHYHGPFDVVGNKCATCNEWWACHRCHEEIANHPFGKMLIDAPSSLQCGHCGELMAYGVQKCPRCGHNFNPGCSLHTPLYYEMPSLEHHHHHH | not soluble
6 | MDDDDTFTCRIQYINDADPFATTSSSYLEPMRPVTFKFRLHECISDQLQDVIRTLRAPHKAGDSSLQVYRGLEGGGGELHTYLDNDMTLTDQQEELDILKADTRRCSLVLRTQTSLRVKTIIDKLLNCSGRDQRRALFSLKQIFQDDQDLVHEFVQNQGLDCMIRLGRTADQNHQNYILRALGQLMLYVDGMNGIIAHNGTIQWLYELLDSPFRLVVKTALKLLLVFIEYNDNNALLVLTAIQTVDKSKGQADWSGLMKVLTEKDSPDAETLVYGMTVVNKALHGIPDRVVILEPLHEFHPQFPQQFLHGNHQSGRIFNRLHLLQLITTISGLFAAKIFRRRFSWFRKIKRTRFRKKPTRVKVKAPPPSFPTLFSPTESKTMDFSEVAPQEPEPEKVAPPPPRAKIEDTGSGNSFADMLQKRAARSAEANRGTFEKKESEAEMQWKKAAENLEKRPLIINDLDFSQFHGVEYQQDPLQLARMAKMKEMAENGMRGGPVGVGVPPPPPPPSAIPLPPRLQGGIPPPPPLGIIPPPPPPGNLLMNGINRGDISPAANKGVLKLHWKPATVEQPDGIPSLKQKGSFWNTVDGAVPTFDAKKIVQLFETKKEKEAPVKKVAETKTQTLSVLPLKRSQAINIGLTKLPPINVIPAAIMKFDSLVLNKDGIEKILKTMMPSPKEIEEIEIKAAENPEMTLGNAEQLLLKLSQIPCLLERLRLWLFTLDYKNSEKDIAEPLMDMQLAMKEMEESRTFKVAMGMLLAIGNSLSGTDIKGFYLDYLTKASEVKDPVYKHTLTYHLAEYMVEHFSEGTDLYSEFGAVARSARVDYKELLDNLIRLEKDCKSSWECLATINVAQRIHQLKAIYTVTKNRWHSFLLYFGYSVDEIPNQTPNDVFKMVTEFSLEYRTTRDKILQQRKRLAEKRERNKTRGKIWALEGSSAEGGAGDAAPLRRRNHGPGTVAPVQNSQQRHDDMSKMLASMADDNNSLRRRPAGSNGVNGRNFGGSVKDLVDTESPEDEILNGLVKAATLQTDPRDQRRRARQFNRKSLRRTRTLKMVDGQLETNY | not soluble
7 | MPRLLPVDSCDTEEYTLTEPPRNPQEYLRFVQREASLCPDVVVAQIDPKKLKKQSVNVSITGCLAAPEGFSPSFKWQQQQVSRFSEVRQSVNKHRQHWKAQFLDDNVVMPKTEDEDGWKRFCLGENVCLEIQLKEEDGVNPGLDYVKTGFPPFLSIVSKLSQSTVSAVLEYLINWFEERAFVPQLGRWLYALLACLEKPLLPEAHSLIRQLARRCSAVRANLESKDDDRLSALNLMICIVARYFEQNDLADKE | soluble
8 | DFFRSAIDQAPSFMAVLDGRDHIFRIVNQAYHQLVGRRDLLNRTVREALPELDGQGFFELLDEVFLTGLAFTRLAAPVLLRRGPEIERSFVDFIMCPLRGPDGQVRGVFVEGHDVT | not soluble
9 | MDRVLPFRFAEEEGVFWLLDQRRLPQEEVYVPVRTAREMAQAIRDMVVRGAPAIGVSAAFGMVLAHLAGEDLEEADRRLRASRPTAVNLFHALDRMRPFWGDLAGSLLEARRIWREVEETEAAISRHGAQVLWGQVLTHCNTGPLATGGYGTALGAIVEAYRLGRVRHVWVDETRPYLQGARLTAYELQKAGVPATLITDGMAGWLMARGAVDAVVVGVDRMALNGDFANKVGTYALAVLAHHHGIPFYAALPLSSVDPRLASGEGIPIEERSPEEVVAFRGVRIAPEGFPAYHPAFDVTPHRYLTGIITEKGVLYPPFAEGLRRALGLD | soluble
10 | MRADGRSSCELRPVHIHPHYMKHAEGSVLIEIGDTKVICTATVEEKVPSFMRGGGKGWITAEYGMLPRATEQRNVREASKGKVSGRTMEIQRLIGRALRSVVDLEQLGERTIWIDCDVIQADGGTRTASITGAYVALVLALAKLVEEGKLEALPIRDFLAATSVGIDPEHGVILDLDYNEDARAKVDMNVVMTGAGQFVEIQGTGEEAVFSRAELDELLEAAQIGIEQLIAVQRRALGEWAARIGEKKEAAEEDTE | not soluble
11 | MQEIQLSPADDLQQALNNSQNGDVITLGPGSYFGNFIISNQVTLRSNNKGEAIIDSQGKGHGLWLKNSQITIENLTITNWGHDLTDQNSGIYSHGKIDNNKVPSLTIRNNILIGDGFGIWLNQADKAIISHNRVKGNLTLRSADRGNGIQVANVTNSHVFLNEVSETRDGVYVISSQNNIIEQNTMHHLRYGIHYMYSYDNTVKNNTAYDTRAGYALMSSRRLTITGNKTTNSEDYGFLLNFITQSTFSHNYVKNVWTKPENKVLGRDGKGLFVYNSGYNTVKHNIIDTAEIGIHLTAGSENIKIFGNSFINNPTQVKYVSNKKQEWSKDGRGNYWSNYLGWDMGNDGIGDTIFEPNDGIDKLVWQYPEMKMIMDSPAILILRWVQRQFPVLKPPGVKDSFPLMSAPSLTKNEQAATPLAVTTSTFTKSNSAQSANTTSASLKELEHHHHHH | not soluble
12 | MSEVPHFVLYEHAAGYALMKIKEFDDAGLILQEVDAAHADGYKFSQIVELASFDPFKNTEAALENCNSISEGLAHPDLTNFLQKSLPKKKKHVVLGINDSKLAGSLTEAFPDLKLVFGGVITEILRGTRVHFERLAKNLPHHSLSKAQLSLGHSYSRSKVKFDVHRVDNMVIQSIALLDQLDKDINLFGMRIREWYSYHYPELFRLAPDQYKYSRLAVAILDRNKMAENENLENEILEILDNDSEKTAQIIEAARTSMGMDISDLDLENIKRFAARVSSLMEYRQQLHEYIKDRMDHCAPSLSALIGEQVGARLISHAGSLTNLAKYPASTVQILGAEKALFRALKTRSNTPKYGLLFHSSFIGKAGTKNKGRVSRYLANKCSIAARVDCFSETPVSTYGEFLRQQVEDRLEYFTSGTVPKKNIDVMKEAEEAAVEVKEKVIKKKKKAAKKAKRLAEESVTATAEAEVDEDAPKPKKKKKSKAGDE | not soluble
13 | GKSASGEKEGNENAEEEAAAIEEARREAEERRKEKHRKMEEEREEMRQTIRDKYGLKKKVKEEPEAEADLDEGRVGRKK | soluble
14 | MRLSRSSHHKTLDEYDFSFQPDLDPRKVRDLATLSFVEGRANAALLGVLVADEVGYQPLERAEARLVFQVISKRYEKGSIILASNKTFSEWGQVGPGFGDEVLATALLGRLLDHCDVISINGPGYRLRNRLKAIERENDVALEHHHHHH | not soluble
15 | MAKNSKFDRVQVVDKAVDLYWEKGFHGTSMRNLQEVIDMRPGSIYATFGSKEGLFKESLQRYTQSGILHLEQCCHEQKSPLLGLKSFIHNIVVEKRSSAPSGMCMLVKTVTELTNENEELLTEAKRSLKIMESEFEKVLRQAQEIGEIEKEKDTKQLAQFVQVQIAGLRTYARTVDSDLPLQNMLDNMFSHYPF | not soluble
16 | MSLFQVPDSEGGRAGSRAMKPPGGESSNLFGSPEEATPSSRPNRMASNIFGPTEEPQNIPKRTNPPGGKGSGIFDESTPVQTRQHLNPPGGKTSDIFGSPVTATSRLAHPNKPKDHVFLCEGEEPKSDLKAARSIPAGAEPGEKGSARKAGPAKEQEPMPTVDSHEPRLGPRPRSHNKVLNPPGGKSSISFYEGHHHHHH | soluble
17 | MVRVGILGASGYGGAELLRLLKAHPEVELVGFSSRKYEGRPLEAAWPQLWDGRLFAAQEEVLERAEVVFLALPNGLSMEIAPEALKAGKRVVDLSGDFRLPPEVYEAWYRIPHKSPDLYREAVYGLPELHREELKGARLVANPGCYVTAATLALAPLAAEGVLKGAFVVGLSGVSGAGREAEGTAFAEVNENLKPYKAGGTHRHIPEMERNLGRILAQGRRVRTHGEARAVRLSFTPHLVPMTRGILVTAEAEVEGAWSQESLEALYRDFYAGEPFVRVLKGLPETKATLGSNRVDVRPLYEERTGRVLVFAALDNLVKGMAGQAVQNLNLMLGLPEETALPKEGLWP | soluble
18 | MDQNVPISKKLWNIVRFLLYMIRKGVSKNKLIADFNATLKRGKNLMFHQRRRVHAGSTASAALNATSATASSRQEYEFSCSNTPNYSFPFSNMAFMRKKSHNNLFTCGQTPQTLDDDVAAARAVLELLNGVGEKGNVTPADLTVALSPYFPGFGQTPLVRPLRVTDSPFPLTPENGDVANGHVDKAADDFIKKFYKNLNQQKKMIEFS | not soluble
19 | MGSDKIHHHHHHMIYLDQAASSFPKPKEVAEAMVAAVNEYGANPGRGGHRLATQARVTIDETRELLKTLFNAPSKKHVWFYQNATGALNQALFGFPFKEGDHVVSTALEHNSVRRPLEQLRERNGLVITYAQPDEEGIISPEKIAQACTDQTKAIVLSHGSNVTGAYLELEKIGEMAEAHGIVFIVDASQTAGVIDIDMKRDRISMLACAGHKGLLGPQGTGVLIVADDYGLTPLSYGGTGSYSELIDQPSQWPDRYESGTLNTPGIAGLKAGIEYVLDNGVAQIFAHEWALTERLLKGLGAQKVDVYGPPLPRKRLGVVSFRLSGFDSHEVALILDEHYQIAVRAGLHCAPMTHETLQTTDTGLIRVSVGPFNTEREVDQLLQAVMDIQQAFTS | not soluble
20 | MFTDSTAKTVAPYTWKTDAGARATSTSDCIVLVLNGNNPIVADVQSCNADTTLPALGVMCGKRAWVY | soluble
